Test results published in patent US20250376533A1 (FUTUREGEN BIOPHARMACEUTICAL BEIJING, published 2025).
Residue numbers refer to the chain shown, from its start. In names and notes the source's numbering stands.

T1: rat CD40 antigen (ACROBiosystems) (rat, UniProt A6JXD6 20-193)
T1 construct: Bought antigen coated on ELISA plates; construct not described
T1 sequence: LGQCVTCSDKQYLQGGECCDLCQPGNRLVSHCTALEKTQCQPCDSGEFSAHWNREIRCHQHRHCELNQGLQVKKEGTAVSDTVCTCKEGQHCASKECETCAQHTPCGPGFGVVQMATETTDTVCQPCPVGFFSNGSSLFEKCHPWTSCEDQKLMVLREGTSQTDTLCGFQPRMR

B1: anti-PD-L1/CD40 bispecific antibody 1652 (bispecific antibody, human IgG2, kappa)
light: DIQMTQSPSSLSASVGDRVTITCRASQDIRNYLNWYQQKPGKAPKLLIYYTSRRDSGVPSRFSGSGSGTDYTLTISSLQPEDFATYFCQQGKTLPWTFGGGTKVEIKRTVAAPSVFIFPPSDEQLKSGTASVVCLLNNFYPREAKVQWKVDNALQSGNSQESVTEQDSKDSTYSLSSTLTLSKADYEKHKVYACEVTHQGLSSPVTKSFNRGEC
heavy: EVQLVESGGGLVQPGGSLRLSCAASGFTFSDYYMSWVRQAPGKGLEWVGFIRNKANAYTTEYAASVKGRFTISRDNSKNTLYLQMNSLRAEDTAVYYCARYGGLRQGWYFDVWGQGTLVTVSSASTKGPSVFPLAPCSRSTSESTAALGCLVKDYFPEPVTVSWNSGALTSGVHTFPAVLQSSGLYSLSSVVTVPSSNFGTQTYTCNVDHKPSNTKVDKTVERKCCVECPPCPAPPVAGPSVFLFPPKPKDTLMISRTPEVTCVVVDVSHEDPEVQFNWYVDGVEVHNAKTKPREEQFNSTFRVVSVLTVVHQDWLNGKEYKCKVSNKGLPAPIEKTISKTKGQPREPQVYTLPPSREEMTKNQVSLTCLVKGFYPSDIAVEWESNGQPENNYKTTPPMLDSDGSFFLYSKLTVDKSRWQQGNVFSCSVMHEALHNHYTQKSLSLSPGGGGGSGGGGSGGGGSGEVQLVESGGGLVQPGGSLRLSCAASGFTFDYYTQCWFRQAPGKEREWVSCISSSEGSTYYADSVKGRFTISRDNSKNTVYLQMNSLKTEDTAVYYCAARKGGPLTIENFFDYWGQGTQVTVSS
notes: First polypeptide chain = anti-CD40 light chain; second polypeptide chain = anti-CD40 heavy chain with the 1541 VHH joined to its C-terminus by a G4S linker
B2: anti-PD-L1/CD40 bispecific antibody 1655 (bispecific antibody, human IgG2, kappa)
light: B1 light with D28T, R30S, N31S, R53T, R54L, D55Q, F87Y, K92N, T93A, L94Y
heavy: B1 heavy with D31N, N79S, R105K, Q106I, V112L
notes: as for B1
B3: anti-PD-L1/CD40 bispecific antibody 1654 (bispecific antibody, human IgG2, kappa)
light: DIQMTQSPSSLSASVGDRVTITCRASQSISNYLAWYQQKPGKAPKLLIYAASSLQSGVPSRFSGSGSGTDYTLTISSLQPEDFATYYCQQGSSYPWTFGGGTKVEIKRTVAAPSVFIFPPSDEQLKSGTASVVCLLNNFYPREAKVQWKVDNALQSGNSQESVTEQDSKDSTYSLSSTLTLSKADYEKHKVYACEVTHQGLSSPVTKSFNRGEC
heavy: B1 heavy with D31N, N79S, S87R, R105K, Q106V, V112L
notes: as for B1
B4: anti-PD-L1 monoclonal antibody 1102 (antibody, human IgG1, V domains shown)
VH: EVQLVESGGGLVQPGGSLRLSCAASGFTFDYYTQCWFRQAPGKEREWVSCISSSEGSTYYADSVKGRFTISRDNAKNTVYLQMNSLRAEDTAVYYCAARKGGPLTIENFFDYWGQGTQVTVSS
B5: anti-PD-L1 monoclonal antibody 1029 (antibody, human IgG1, V domains shown)
VH: B4 VH with F29L, T33S, Q34K, S52G, E55D, K100N
B6: anti-PD-L1 monoclonal antibody 1031 (antibody, human IgG1, V domains shown)
VH: B4 VH with D30E, Q34K, S53T

target: T2, rat PD-L1 antigen (ACROBiosystems) (rat, UniProt D4AE25 19-239); test: ELISA, coated antigen
T2 construct: Bought antigen coated on ELISA plates; construct not described
Experimental: (§1) The binding ability of bispecific antibody to human PD-L1 and human CD40, as well as the species specificity, was detected using an enzyme-linked immunosorbent assay (ELISA). The specific method is as follows: human PD-L1, cynomolgus PD-L1, rat PD-L1, mouse PD-L1, human CD40, cynomolgus CD40, rat CD40, and mouse CD40 antigens (all purchased from ACROBiosystems) were coated with 1 μg/mL carbonate buffer (pH=9.6) in an ELISA plate at 100 μL per well, followed by incubation at 4° C. overnight. The wells were washed 5 times with PBST. 300 μL/well of PBST containing 1% BSA was added to block the wells, and the plate was incubated at room temperature for 1 hour. The wells were washed 5 times with PBST. […] The wells were washed 5 times with PBST. […] The wells were washed 5 times with PBST. Colorimetric substrate TMB was added at 100 μL per well and allowed to develop color at room temperature for 10 minutes, followed by the addition of 1 M sulfuric acid to terminate the reaction. The OD_{450 nm} was read on a microplate reader to analyze the results, and the EC₅₀ was calculated using a 4-parameter fit binding curve.
(§2) These bispecific antibodies are not able to bind to rat PD-L1 and CD40 or mouse PD-L1 and CD40.

T2 sequence (D4AE25 entry or part of it limits assumed): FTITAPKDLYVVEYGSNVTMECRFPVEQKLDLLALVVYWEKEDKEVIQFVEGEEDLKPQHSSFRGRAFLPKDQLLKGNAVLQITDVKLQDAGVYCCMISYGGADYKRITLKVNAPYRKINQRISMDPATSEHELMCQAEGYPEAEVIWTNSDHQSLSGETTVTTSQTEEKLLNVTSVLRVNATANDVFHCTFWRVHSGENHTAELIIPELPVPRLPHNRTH

Row | binding result | Binder
1 | no binding | B1
2 | no binding | B2
3 | no binding | B3

target: T3, human CD40 antigen (ACROBiosystems) (human, UniProt P25942 21-193); test: ELISA, coated antigen
T3 construct: Bought antigen coated on ELISA plates; construct not described
Experimental: as §1, §2

T3 sequence (P25942 21-193 limits assumed): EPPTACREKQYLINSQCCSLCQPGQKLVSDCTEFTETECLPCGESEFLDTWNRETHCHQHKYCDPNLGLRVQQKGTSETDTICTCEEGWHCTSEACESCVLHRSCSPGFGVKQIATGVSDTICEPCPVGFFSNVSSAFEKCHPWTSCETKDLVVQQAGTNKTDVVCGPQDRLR

Row | EC50 | Binder
4 | 0.021 nM | B1
5 | 0.025 nM | B2
6 | 0.013 nM | B3

target: T4, mouse PD-L1 antigen (ACROBiosystems) (mouse, UniProt Q9EP73 19-239); test: ELISA, coated antigen
T4 construct: Bought antigen coated on ELISA plates; construct not described
Experimental: as §1, §2

T4 sequence (Q9EP73 19-239 limits assumed): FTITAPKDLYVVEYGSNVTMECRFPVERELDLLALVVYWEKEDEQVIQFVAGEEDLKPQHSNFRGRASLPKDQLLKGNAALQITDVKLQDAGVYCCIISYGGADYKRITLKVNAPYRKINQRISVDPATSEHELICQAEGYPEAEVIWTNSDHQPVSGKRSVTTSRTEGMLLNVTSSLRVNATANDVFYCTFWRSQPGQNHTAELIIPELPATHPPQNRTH

Row | binding result | Binder
7 | no binding | B1
8 | no binding | B2
9 | no binding | B3

target: T5, cynomolgus PD-L1 antigen (ACROBiosystems) (cynomolgus, UniProt G7PSE7 19-238); test: ELISA, coated antigen
T5 construct: Bought antigen coated on ELISA plates; construct not described
Experimental: as §1, §2

T5 sequence (G7PSE7 entry or part of it): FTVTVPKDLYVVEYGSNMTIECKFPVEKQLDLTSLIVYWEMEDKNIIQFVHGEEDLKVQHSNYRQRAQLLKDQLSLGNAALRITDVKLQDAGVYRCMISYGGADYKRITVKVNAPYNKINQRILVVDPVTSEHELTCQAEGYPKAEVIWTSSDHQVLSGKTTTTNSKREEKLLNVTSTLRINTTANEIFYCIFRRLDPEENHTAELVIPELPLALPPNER

Row | EC50 | Binder
10 | 0.018 nM | B1
11 | 0.023 nM | B2
12 | 0.045 nM | B3

target: T6, human PD-L1 antigen (ACROBiosystems) (human, UniProt Q9NZQ7 19-238); test: ELISA, coated antigen
T6 construct: Bought antigen coated on ELISA plates
Experimental: as §1, §2

T6 sequence (Q9NZQ7 19-238 limits assumed): as the sequence (G7PSE7 entry or part of it) above, with T33A, S34A, N62S, Q68R, R82Q, L173F, A185T, I192T, L215H counted along it

Row | EC50 | Binder
13 | 0.035 nM | B1
14 | 0.039 nM | B2
15 | 0.031 nM | B3

target: T7, cynomolgus CD40 antigen (ACROBiosystems) (cynomolgus, UniProt G7PG38 21-193); test: ELISA, coated antigen
T7 construct: Bought antigen coated on ELISA plates; construct not described
Experimental: as §1, §2

Row | EC50 | Binder
16 | 0.017 nM | B1
17 | 0.006 nM | B2
18 | 0.013 nM | B3

target: T1, rat CD40 antigen (ACROBiosystems); test: ELISA, coated antigen
Experimental: as §1, §2

Row | binding result | Binder
19 | no binding | B1
20 | no binding | B2
21 | no binding | B3

target: T8, mouse CD40 antigen (ACROBiosystems) (mouse, UniProt P27512 24-193, limits assumed); test: ELISA, coated antigen
T8 construct: Bought antigen coated on ELISA plates; construct not described
Experimental: as §1, §2

T8 sequence (P27512 24-193 limits assumed): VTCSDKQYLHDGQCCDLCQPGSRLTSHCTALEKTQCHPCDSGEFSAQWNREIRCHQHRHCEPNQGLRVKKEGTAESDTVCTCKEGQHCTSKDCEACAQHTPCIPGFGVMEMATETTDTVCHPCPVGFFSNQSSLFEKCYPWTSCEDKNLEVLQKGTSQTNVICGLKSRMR

Row | binding result | Binder
22 | no binding | B1
23 | no binding | B2
24 | no binding | B3

target: T9, CD40 on HEK-Blue CD40L cells (InvivoGen) (UniProt P25942 21-277, limits assumed); test: cell-based or functional assay
T9 sequence (P25942 21-277 limits assumed): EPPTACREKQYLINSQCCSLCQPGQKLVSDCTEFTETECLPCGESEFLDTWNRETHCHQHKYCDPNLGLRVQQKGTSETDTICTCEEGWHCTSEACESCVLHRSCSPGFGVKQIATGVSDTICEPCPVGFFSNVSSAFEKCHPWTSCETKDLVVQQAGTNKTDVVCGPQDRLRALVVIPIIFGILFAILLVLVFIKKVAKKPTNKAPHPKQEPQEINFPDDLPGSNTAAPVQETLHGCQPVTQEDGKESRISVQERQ

Row | CD40 agonistic activity (A)/(B) Ratio, EC50 without over with CHO/PD-L1 | CD40 agonistic activity EC50 (nM) with CHO/PD-L1 (B), SEAP reporter | CD40 agonistic activity EC50 (nM) without CHO/PD-L1 (A), SEAP reporter | Binder
25 | 4.1 | 0.022 nM | 0.092 nM | B1
26 | 25.3 | 0.027 nM | 0.686 nM | B2
27 | 23.2 | 0.027 nM | 0.633 nM | B3

target: T9, CD40 on HEK-Blue CD40L cells (InvivoGen); test: flow cytometry, competition with 10 nM Biotin-CD40L on HEK-Blue CD40L cells
Experimental: The blocking effect of bispecific antibodies on CD40/CD40L binding was tested using HEK-Blue CD40L cells that highly express CD40. The specific method is as follows: HEK-Blue CD40L cells were collected and resuspended in pre-cooled PBS containing 2% FBS at a density of 1E7 cells/mL, and then added to a 96-well plate at 50 μL per well, i.e., 5E5 cells/well. Biotin-CD40L (FutureGen Biopharmaceutical) and serially diluted bispecific antibody were then added at 50 μL per well, with a final concentration of Biotin-CD40L of 10 nM, and the plate was incubated at 4° C. for 1 hour. The wells were washed twice with pre-cooled PBS. Streptavidin-PE (BioLegend, Cat. No. 405203) diluted in pre-cooled PBS containing 2% FBS was added, and the plate was incubated at 4° C. for 30 minutes. The wells were washed twice with pre-cooled PBS. The cells were then resuspended in pre-cooled PBS containing 2% FBS and assayed by flow cytometry.

Row | IC50 | Binder
28 | 0.852 nM | B1
29 | 8.63 nM | B2
30 | 7.7 nM | B3

target: T3, human CD40 antigen (ACROBiosystems); test: bridging ELISA: coated human CD40, serially diluted bispecific antibody, detection with biotin-labeled human PD-L1 and streptavidin-HRP, OD450
Experimental: Antigen human CD40 (purchased from ACROBiosystems) was coated with 1 μg/mL carbonate buffer (pH=9.6) in an ELISA plate at 100 μL per well, followed by incubation at 4° C. overnight. The wells were washed 5 times with PBST. 300 μL/well of PBST containing 1% BSA was added to block the wells, and the plate was incubated at room temperature for 1 hour. The wells were washed 5 times with PBST. […] The wells were washed 5 times with PBST. Biotin-labeled human PD-L1 (FutureGen Biopharmaceutical) diluted with PBST containing 1% BSA was added at 100 μL per well, and the plate was incubated at room temperature for 1 hour. The wells were washed 5 times with PBST. Streptavidin-HRP (BioLegend, Cat. No. 405210) diluted with PBST containing 1% BSA was added at 100 μL per well, and the plate was incubated at room temperature for 30 minutes. Colorimetric substrate TMB was added at 100 μL per well and allowed to develop color at room temperature for 10 minutes, followed by the addition of 1 M sulfuric acid to terminate the reaction. The OD_[…] was read on a microplate reader to analyze the results, and the EC₅₀ was calculated using a 4-parameter fit binding curve.

Row | EC50 | Binder
31 | 0.032 nM | B1
32 | 0.039 nM | B2
33 | 0.026 nM | B3

target: T2, rat PD-L1 antigen (ACROBiosystems); test: ELISA, coated antigen; remark: another data set of the same source
Experimental: as §1, with “monoclonal” for “bispecific”, “PD-L1,” for “PD-L1 and human CD40,”, “PD-L1,” for “PD-L1, mouse PD-L1, human CD40, cynomolgus CD40, rat CD40,”, “PD-L1” for “CD40”
(§3) These monoclonal antibodies are not able to bind to rat PD-L1 or mouse PD-L1.

Row | binding result | Binder
34 | no binding | B4
35 | no binding | B5
36 | no binding | B6

target: T4, mouse PD-L1 antigen (ACROBiosystems); test: ELISA, coated antigen; remark: another data set of the same source
Experimental: as §1, with “monoclonal” for “bispecific”, “PD-L1,” for “PD-L1 and human CD40,”, “PD-L1,” for “PD-L1, mouse PD-L1, human CD40, cynomolgus CD40, rat CD40,”, “PD-L1” for “CD40”
as §3

Row | binding result | Binder
37 | no binding | B4
38 | no binding | B5
39 | no binding | B6

target: T5, cynomolgus PD-L1 antigen …; test: ELISA, coated antigen; remark: another data set of the same source
Experimental: as §1, with “monoclonal” for “bispecific”, “PD-L1,” for “PD-L1 and human CD40,”, “PD-L1,” for “PD-L1, mouse PD-L1, human CD40, cynomolgus CD40, rat CD40,”, “PD-L1” for “CD40”
as §3

Row | EC50 | Binder
40 | 0.013 nM | B4
41 | 0.013 nM | B5
42 | 0.018 nM | B6

target: T6, human PD-L1 antigen (ACROBiosystems); test: ELISA, coated antigen; remark: another data set of the same source
Experimental: as §1, with “monoclonal” for “bispecific”, “PD-L1,” for “PD-L1 and human CD40,”, “PD-L1,” for “PD-L1, mouse PD-L1, human CD40, cynomolgus CD40, rat CD40,”, “PD-L1” for “CD40”
as §3

Row | EC50 | Binder
43 | 0.013 nM | B4
44 | 0.012 nM | B5
45 | 0.02 nM | B6

target: T6, human PD-L1 antigen (ACROBiosystems); test: BLI (Gator), antibody captured on PA probe, human PD-L1 in solution
Experimental: The interaction between monoclonal antibodies and antigens was detected using Gator, a label-free biomolecular interaction analyzer based on the principle of biolayer interferometry (BLI). The specific method is as follows: monoclonal antibody was diluted to 50 nM and added to a probe plate using a PA probe, allowing the monoclonal antibody to be captured by the PA probe. Human PD-L1, an antigen serially diluted starting from 200 nM, was then added for interaction with the […] captured by the PA probe. The interaction was analyzed by detecting the signal change of the reflected interference spectrum on the surface of the probe, and the binding kinetic constants of the antibody were finally calculated.

Row | Kd | koff | kon | Binder
46 | 4.41 nM | 0.00451 s⁻¹ | 1.02e+06 M⁻¹ s⁻¹ | B4
47 | 4.37 nM | 0.00422 s⁻¹ | 967000 M⁻¹ s⁻¹ | B5
48 | 8.3 nM | 0.00913 s⁻¹ | 1.1e+06 M⁻¹ s⁻¹ | B6
